The record followed here is PMC6742648.

The target of this assay is stabilized pre-fusion RSV F glycoprotein (DS-Cav1) (respiratory syncytial virus (strain not stated)) (UniProt P03420). Put plainly: crystal structure; RB1 Fab with DS-Cav1, complex purified by SEC; crystals in 100 mM Tris pH 8.5, 12% PEG 8000, 200 mM ammonium sulfate; 3.4 A. Background: In gel filtration, larger molecules generally elute earlier.

Usually stoichiometry N stands for a count of units in the complex or per binding partner. The substance “stabilized pre-fusion RSV F glycoprotein (DS-Cav1) (from UniProt P03420 137-513) (natural protein)” came in with a stoichiometry N of 3.
